Source: paper PMC6303327, “A structural and dynamic model for the assembly of Replication Protein A on single-stranded DNA” (Nature Communications, 2018)
Substitutions are numbered along the chain they refer to. Numbers in names are those of the source. Each block holds one binder with its values, some of them ahead of it.

Target: T1, Rfa3 DNA-binding domain-E (DBD-E), OB domain, residues 1-99 (S. cerevisiae, UniProt P26755 1-99, fluorescent label NT-495 (Monolith NT protein-labeling Kit Blue-Cys) on free cysteine residues)
T1 construct: Rfa3 (RPA14 in humans), S. cerevisiae Replication Protein A smallest subunit, residues 1-99; the C-terminal trimerisation helix is removed; 3C-cleavable GST fusion; also called Rfa3-OB; Rfa3-OB domain; source: E. coli BL21 (DE3), purified (glutathione sepharose 4B, on-column 3C cleavage, SEC)
T1 sequence (P26755 1-99): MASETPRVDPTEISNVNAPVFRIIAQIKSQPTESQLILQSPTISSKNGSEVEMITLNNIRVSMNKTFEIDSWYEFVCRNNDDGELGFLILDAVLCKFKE
Assay: MST; 50 nM NT-495-labeled DBD-E (or mutant) mixed with equal volumes of a dilution series of DBD-A or DBD-A^S178D; 20 mM Tris pH 7.5, 150 mM NaCl, 0.5 mM TCEP, 0.01% Tween-20, 0.1 mg/ml BSA; 25 °C; apparent EC50 from the Hill equation
Conditions: both partners purified

- EC50: ~100 µM
B1: Rfa1 DNA-binding domain-A (DBD-A), residues 178-294 (domain or fragment, S. cerevisiae, UniProt P22336 178-294, looked up)
chain: SQKTRPIFAIEQLSPYQNVWTIKARVSYKGEIKTWHNQRGDGKLFNVNFLDTSGEIRATAFNDFATKFNEILQEGKVYYVSKAKLQPAKPQFTNLTHPYELNLDRDTVIEECFDESN
notes: Rfa1 (RPA70 in humans), S. cerevisiae Replication Protein A largest subunit, DBD-A, residues 178-294; amplified from the codon-optimized RPA expression plasmid, cloned into pOPINJ; 3C-cleavable GST fusion; also called Rfa1-DBD-A; source: E. coli BL21 (DE3), purified (glutathione sepharose 4B, on-column 3C cleavage, SEC)

- EC50: ~30 µM
B2: Rfa1 DBD-A (residues 178-294) phosphomimetic S178D (domain or fragment, S. cerevisiae, UniProt P22336 178-294, looked up)
chain: B1 chain with S1D
notes: Rfa1, S. cerevisiae, DBD-A, residues 178-294 with S178D (first residue of the fragment); also called DBD-A^S178D; S178D mutant DBD-A; source: E. coli BL21 (DE3), purified (glutathione sepharose 4B, on-column 3C cleavage, SEC)
